From patent publication US20180148504A1 (EISAI R AND D MANAGEMENT, published 2018)

Columns and labels:
[1] = target: T1, human folate receptor gamma (FRγ), recombinant, C-terminal 6xHis (human, UniProt P41439 23-245, limits assumed); assay: direct ELISA, plates coated with 1 µg/mL FR isoform, dilution series of culture supernatant
T1 construct: Transiently expressed in 293F cells and purified; coated on ELISA plates

[2] = target: T2, human folate receptor beta (FRβ), recombinant, C-terminal 6xHis (human, UniProt P14207 17-230, limits assumed); assay: as above
T2 construct: Transiently expressed in 293F cells and purified; coated on ELISA plates
T2 sequence (P14207 other isoform, or with tags, fused parts or gaps limits assumed): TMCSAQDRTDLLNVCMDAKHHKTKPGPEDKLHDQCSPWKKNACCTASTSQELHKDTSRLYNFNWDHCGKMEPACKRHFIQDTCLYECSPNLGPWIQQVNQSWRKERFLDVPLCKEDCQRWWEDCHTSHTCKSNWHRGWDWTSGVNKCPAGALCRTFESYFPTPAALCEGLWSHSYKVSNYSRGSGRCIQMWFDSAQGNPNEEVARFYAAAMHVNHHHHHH

[3] = target: T3, recombinant purified FRα (ECL assay calibrator) (human, UniProt P15328 25-234); assay: ECL sandwich, FRα calibrator; capture 1D2.G8.G10; binder = detection Ab
T3 construct: Calibrator of the ECL sandwich assays; also called FRα calibrator; FRα standard
T3 sequence (P15328 25-234 limits assumed): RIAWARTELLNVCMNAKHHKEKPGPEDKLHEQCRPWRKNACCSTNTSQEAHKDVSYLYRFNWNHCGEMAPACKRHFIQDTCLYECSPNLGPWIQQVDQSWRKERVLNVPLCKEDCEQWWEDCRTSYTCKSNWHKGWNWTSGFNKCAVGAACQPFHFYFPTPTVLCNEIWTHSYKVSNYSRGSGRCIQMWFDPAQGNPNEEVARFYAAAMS

[4] = target: T3, recombinant purified FRα (ECL assay …); assay: ECL sandwich, FRα calibrator; capture 1A8.G11.E7; binder = detection Ab
[5] = target: T3, recombinant purified FRα (ECL assay …); assay: ECL sandwich on FRα, signal to background; capture 24H8.D3; binder = detection Ab
[6] = target: T3, recombinant purified FRα (ECL assay …); assay: ECL sandwich on FRα, signal to background; capture 1A8.G11.E7; binder = detection Ab
[7] = target: T3, recombinant purified FRα (ECL assay …); assay: ECL sandwich, FRα calibrator; capture 28H12.G9; binder = detection Ab
[8] = target: T3, recombinant purified FRα (ECL assay …); assay: ECL sandwich on FRα, signal to background; capture 1C6.E12.G8; binder = detection Ab
[9] = target: T3, recombinant purified FRα (ECL assay …); assay: ECL sandwich, FRα calibrator; capture 30G6.G6.G4.E9; binder = detection Ab
[10] = target: T3, recombinant purified FRα (ECL assay …); assay: ECL sandwich, FRα calibrator; capture 5C12.H8; binder = detection Ab
[11] = target: T3, recombinant purified FRα (ECL assay …); assay: ECL sandwich on FRα, signal to background; capture 2F11.F8; binder = detection Ab
[12] = target: T3, recombinant purified FRα (ECL assay …); assay: ECL sandwich on FRα, signal to background; capture 19D4.B7; binder = detection Ab
[13] = target: T3, recombinant purified FRα (ECL assay …); assay: ECL sandwich, FRα calibrator; capture 24H8.F3; binder = detection Ab
[14] = target: T3, recombinant purified FRα (ECL assay …); assay: ECL sandwich on FRα, signal to background; capture 5C12.H8; binder = detection Ab
[15] = target: T3, recombinant purified FRα (ECL assay …); assay: ECL sandwich, FRα calibrator; capture 19D4.B7; binder = detection Ab
[16] = target: T3, recombinant purified FRα (ECL assay …); assay: ECL sandwich, FRα calibrator; capture 6A2.G7; binder = detection Ab
[17] = target: T3, recombinant purified FRα (ECL assay …); assay: ECL sandwich, FRα calibrator; capture 19D2.G9; binder = detection Ab
[18] = target: T3, recombinant purified FRα (ECL assay …); assay: ECL sandwich, FRα calibrator; capture 24H8.D3; binder = detection Ab
[19] = target: T3, recombinant purified FRα (ECL assay …); assay: ECL sandwich on FRα, signal to background; capture 1D2.G8.G10; binder = detection Ab
[20] = target: T3, recombinant purified FRα (ECL assay …); assay: ECL sandwich on FRα, signal to background; capture 19D2.G9; binder = detection Ab
[21] = target: T3, recombinant purified FRα (ECL assay …); assay: ECL sandwich, FRα calibrator; capture 1C6.E12.G8; binder = detection Ab
[22] = target: T3, recombinant purified FRα (ECL assay …); assay: ECL sandwich on FRα, signal to background; capture 28H12.G9; binder = detection Ab
[23] = target: T3, recombinant purified FRα (ECL assay …); assay: ECL sandwich on FRα, signal to background; capture 24H8.F3; binder = detection Ab
[24] = target: T3, recombinant purified FRα (ECL assay …); assay: ECL sandwich on FRα, signal to background; capture 26A9.C4; binder = detection Ab
[25] = target: T3, recombinant purified FRα (ECL assay …); assay: ECL sandwich, FRα calibrator; capture 2F11.F8; binder = detection Ab
[26] = target: T3, recombinant purified FRα (ECL assay …); assay: ECL sandwich on FRα, signal to background; capture 30G6.G6.G4.E9; binder = detection Ab
[27] = target: T3, recombinant purified FRα (ECL assay …); assay: ECL sandwich on FRα, signal to background; capture 6A2.G7; binder = detection Ab
[28] = target: T3, recombinant purified FRα (ECL assay …); assay: ECL sandwich, FRα calibrator; capture 26A9.C4; binder = detection Ab

T1 sequence (P41439 other isoform, or with tags, fused parts or gaps limits assumed): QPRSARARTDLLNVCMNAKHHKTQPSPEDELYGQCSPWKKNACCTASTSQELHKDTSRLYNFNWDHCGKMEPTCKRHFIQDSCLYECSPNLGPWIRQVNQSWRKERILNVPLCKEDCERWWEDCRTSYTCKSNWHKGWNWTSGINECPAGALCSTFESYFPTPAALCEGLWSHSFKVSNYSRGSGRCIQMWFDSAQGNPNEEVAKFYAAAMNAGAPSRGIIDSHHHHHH

B1: Monoclonal antibody 1A8.G11.E7 (antibody, mouse IgG1, V domains shown)
VH: ESGPGLVAPSQSLSITCTVSGFSLTSYGVSWVRQPPGKGLEWLGVIWGDGSTNYHSTLISRLSISKDNSKSQVFLKLNSLQTDDTATYYCAKPHPAATGAMDYWGQGTSVTVSS
VL: TQTTSSLSASLGDRVTISCRASQDISNHLNWYQQKPDGTVKLLIYYTSRLHSGVPSRFSGSGSGTDYSLTISNLEQEDIATYFCQQGNTLWTFGGGTKLEIK
notes: Murine IgG1 kappa from hybridoma; also called ATCC PTA-123100
- binding result [1]: no binding
- binding result [2]: no binding
- Specific signal at 500 pg/mL [3]: 64
- Specific signal at 500 pg/mL [4]: 67
- Average of S/B [5]: 1
- Average of S/B [6]: 1
- Specific signal at 500 pg/mL [7]: 83
- Average of S/B [8]: 1
- Specific signal at 500 pg/mL [9]: 17900
- Specific signal at 500 pg/mL [10]: 76
- Average of S/B [11]: 1
- Average of S/B [12]: 310
- Specific signal at 500 pg/mL [13]: 87
- Average of S/B [14]: 1
- Specific signal at 500 pg/mL [15]: 41400
- Specific signal at 500 pg/mL [16]: 1840
- Specific signal at 500 pg/mL [17]: 106
- Specific signal at 500 pg/mL [18]: 84
- Average of S/B [19]: 1
- Average of S/B [20]: 2
- Specific signal at 500 pg/mL [21]: 75
- Average of S/B [22]: 1
- Average of S/B [23]: 1
- Average of S/B [24]: 1
- Specific signal at 500 pg/mL [25]: 60
- Average of S/B [26]: 244
- Average of S/B [27]: 27
- Specific signal at 500 pg/mL [28]: 80

B2: Monoclonal antibody 24H8.D3 (antibody, mouse IgG1, V domains shown)
VH: QVQLKESGPGLVAPSQSLSITCTVSGFSLTSYGVSWVRQPPGKGLEWLGVIWGDGSTNYHSTLISRLSISKDNSKSQVFLKLNSLQTDDTATYYCAKPHPAATGAMDYWGQGTSVTVSS
VL: DIQMTQTTSSLSASLGDRVTISCRASQDISNHLNWYQQKPDGTIKLLIYYTSKLHSGVPSRFSGSGSGTDYSLTISNLEQEDIATYFCQQGNTLWTFGGGTKLEIK
notes: Biotin-conjugated when used as capture antibody in the ECL assay; also called ATCC PTA-123090
- binding result [1]: no binding
- binding result [2]: no binding
- Specific signal at 500 pg/mL [3]: 52
- Specific signal at 500 pg/mL [4]: 71
- Average of S/B [5]: 1
- Average of S/B [6]: 1
- Specific signal at 500 pg/mL [7]: 97
- Average of S/B [8]: 1
- Specific signal at 500 pg/mL [9]: 20300
- Specific signal at 500 pg/mL [10]: 69
- Average of S/B [11]: 1
- Average of S/B [12]: 332
- Specific signal at 500 pg/mL [13]: 88
- Average of S/B [14]: 1
- Specific signal at 500 pg/mL [15]: 40500
- Specific signal at 500 pg/mL [16]: 1930
- Specific signal at 500 pg/mL [17]: 110
- Specific signal at 500 pg/mL [18]: 69
- Average of S/B [19]: 1
- Average of S/B [20]: 2
- Specific signal at 500 pg/mL [21]: 59
- Average of S/B [22]: 1
- Average of S/B [23]: 1
- Average of S/B [24]: 1
- Specific signal at 500 pg/mL [25]: 64
- Average of S/B [26]: 273
- Average of S/B [27]: 38
- Specific signal at 500 pg/mL [28]: 81

B3: Monoclonal antibody 24H8.F3 (antibody, mouse IgG1, V domains shown)
VH: GPGLVAPSQSLSITCTVSGFSLTSYGVSWVRQPPGKGLEWLGVIWGDGSTNYHSTLISRLSISKDNSKSQVFLKLNSLQTDDTATYYCAKPHPAATGAMDYWGQGTSVTVSS
VL: TTSSLSASLGDRVTISCRASQDISNHLNWYQQKPDGTIKLLIYYTSKLHSGVPSRFSGSGSGTDYSLTISNLEQEDIATYFCQQGNTLWTFGGGTKLEIK
notes: Murine IgG1 kappa from hybridoma; also called ATCC PTA-123097
- binding result [1]: no binding
- binding result [2]: no binding
- Specific signal at 500 pg/mL [3]: 64
- Specific signal at 500 pg/mL [4]: 139
- Average of S/B [5]: 2
- Average of S/B [6]: 2
- Specific signal at 500 pg/mL [7]: 85
- Average of S/B [8]: 1
- Specific signal at 500 pg/mL [9]: 28300
- Specific signal at 500 pg/mL [10]: 70
- Average of S/B [11]: 1
- Average of S/B [12]: 327
- Specific signal at 500 pg/mL [13]: 104
- Average of S/B [14]: 2
- Specific signal at 500 pg/mL [15]: 33600
- Specific signal at 500 pg/mL [16]: 1870
- Specific signal at 500 pg/mL [17]: 242
- Specific signal at 500 pg/mL [18]: 158
- Average of S/B [19]: 1
- Average of S/B [20]: 4
- Specific signal at 500 pg/mL [21]: 64
- Average of S/B [22]: 2
- Average of S/B [23]: 1
- Average of S/B [24]: 1
- Specific signal at 500 pg/mL [25]: 61
- Average of S/B [26]: 501
- Average of S/B [27]: 27
- Specific signal at 500 pg/mL [28]: 72
